One series deals with LNCaP cells. As to the kind of experiment: Internalization into LNCaP cells, normalized to (125I-I-BA)KuE. The series is classed as cell-based, human. The following applies: LNCaP cells 1.25 x 10^5/well, 1 h, 37°C, ligand 0.5 nM/well; % of specific internalization of (125I-I-BA)KuE; 68Ga-19F or 18F free-chelator form; mean ± SD, n = 3. Here is the method: Internalization studies were carried out according to a previously published procedure (1). Briefly, LNCaP cells were harvested 24 ± 2 hours before the experiment and seeded in poly -L-lysine coated 24-well plates […]
After removal of the culture medium, the cells were washed once with 500 µL DMEM -F12 (5% BSA) and left to equilibrate for at least 15 min at 37 °C in 200 µL DMEM-F12 (5% BSA). Each well was treated with either 25 µL of either DMEM-F12 (5% BSA, control) or 25 µL of a 100 µM PMPA (2-(Phosphonomethyl)-pentandioic acid, Tocris Bioscience, Bristol, UK) solution in PBS, for blockade. Next, 25 µL of the radioactive-labelled PSMA inhibitor (5.0 nM in PBS) was added and the cells were incubat ed at 37 °C for 60 min. The experiment was terminated by placing the 24 -well plate on ice for 3 min and consecutive removal of the medium. Each well was carefully washed with 250 µL of ice-cold HBSS. Both fractions from the first steps, representing the amount of free radioligand, were combined. Removal of surface bound activity was accomplished by incubation of the cells with 250 µL of ice-cold PMPA (10 µM in PBS) solution for 5 min […]
and rinsed again with another 250 µL of ice-cold PBS. The internalized activity was determined by incubation of the cells in 250 µL 1 M aqueous NaOH for at least 10 min. The obtained fractions were combined with those of the subsequent wash step with 250 µL 1 M aqueous NaOH. Each experiment (control and blockade) was performed in triplicate. Free, surface bound and internalized activity was quantified in a γ-counter. All internalization studies were accompanied by external reference studies, using […]
Data were corrected for non-specific

The nature of series [1]: Biodistribution in LNCaP tumor-bearing CB-17 SCID mice. The conditions noted are these: male, mouse, in vivo, iv, 0.2 nmol, total radioactivity, 1 h p.i., i.v. tail vein, mean ± SD, n = 3 (n = 4 for rhPSMA-10). The source says:
Mice were used for experiments when tumors had grown to a diameter of 5–10 mm (3–6 wk after inoculation).
Selected organs were removed, weighed, and measured in a γ-counter.

The target in another series is T1, human serum albumin (Homo sapiens, UniProt P02768).
T1 construct: purchased Daicel H13H-2433
T1 sequence (P02768 25-609): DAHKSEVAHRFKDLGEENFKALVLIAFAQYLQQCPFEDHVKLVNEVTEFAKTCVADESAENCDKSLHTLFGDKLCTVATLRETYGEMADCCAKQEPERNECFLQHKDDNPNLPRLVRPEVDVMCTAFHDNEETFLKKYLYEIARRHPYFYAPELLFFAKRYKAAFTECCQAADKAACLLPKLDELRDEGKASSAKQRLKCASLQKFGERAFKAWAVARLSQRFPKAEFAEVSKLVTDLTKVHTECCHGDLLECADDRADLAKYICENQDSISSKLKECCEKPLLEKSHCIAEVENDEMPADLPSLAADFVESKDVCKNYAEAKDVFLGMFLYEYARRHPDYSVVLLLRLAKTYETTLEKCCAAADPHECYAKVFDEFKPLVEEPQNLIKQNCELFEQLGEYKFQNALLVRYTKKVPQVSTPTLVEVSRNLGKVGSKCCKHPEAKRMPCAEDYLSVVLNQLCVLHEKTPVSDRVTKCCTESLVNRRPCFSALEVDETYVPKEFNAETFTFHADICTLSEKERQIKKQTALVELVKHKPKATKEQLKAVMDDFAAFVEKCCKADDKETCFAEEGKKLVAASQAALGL
Put plainly: HSA binding by HPLC on Chiralpak HSA column. The series is classed as in vitro ADME. The conditions noted are these: affinity HPLC, 50 mM NH4OAc pH 6.9/isopropanol gradient, r.t., 0.5 mg/mL, calibrated with nine reference substances, natGa-19F form. As to the method: with water (10 mL). The purified product was eluted with 50% aqueous ethanol (2 mL), phosphate buffered saline (PBS, 1 mL) and again water (1 mL). After removing ethanol in vacuo, purity of the radiolabelled compounds was determined by radio-HPLC and radio-TLC (ITLC-SG chromatography paper, mobile phase: 0.1 M trisodium citrate and Silica gel 60 RP-18 F254s, mobile phase: 3:2 mixture (v/v) of MeCN in H2O supplemented with 10% of 2 M NaOAc solution and 1% of TFA).
6. Human Serum Albumin (HSA) Binding
HSA binding of the PSMA-addressing ligands was determined according to a previously published procedure via HPLC (7). A Chiralpak HSA column (50 x 3 mm, 5 μm, H13H-2433, Daicel, Tokyo, Japan) […]
literature, in the range of 13 to 99% (7,8). All substances, including the examined PSMA ligands, were […]
final concentration of 0.5 mg/mL.
(Northampton, United States).
Affinity determinations (IC50)
The PSMA affinity (IC50) determinations and synthesis of the radioiodinated reference ligand (((S)-1- […]
described previously (1). Briefly, the respective ligand was diluted (serial dilution 10-4 to 10-10) in Hank’s balanced salt solution (HBSS, Biochrom). In the case of metal-complexed ligands, the crude reaction mixture containing the purified metal-complexed inhibitor and remaining metal nitrate, was diluted THE JOURNAL OF NUCLEAR MEDICINE • Vol. 61 • No. 5 • May 2020 Wurzer et al.

The mark [2] stands for this setting: read-out: Biodistribution, Adrenals.
Where [3] appears, read: read-out: Biodistribution, Blood.
The mark [4] stands for this setting: read-out: Biodistribution, Bone.
Where [5] appears, read: read-out: Biodistribution, Heart.
[6] abbreviates: read-out: Biodistribution, Intestine.
Setting [7] is: read-out: Biodistribution, Kidneys.
Setting [8] is: read-out: Biodistribution, Liver.
Where [9] appears, read: read-out: Biodistribution, Lung.
Where [10] appears, read: read-out: Biodistribution, Muscle.
[11] abbreviates: read-out: Biodistribution, Pancreas.
[12] abbreviates: read-out: Biodistribution, Spleen.
Setting [13] is: read-out: Biodistribution, Stomach.
Setting [14] is: LNCaP tumor, read-out: Biodistribution, Tumor.

Structures are written as SMILES. Like-named read-outs stand apart in the source and are kept apart here.

Here are results for four compounds from article PMC7198388, “Radiohybrid Ligands: A Novel Tracer Concept Exemplified by ^18F- or ^68Ga-Labeled rhPSMA Inhibitors” (Journal of Nuclear Medicine, 2020).

For `CC(C)(C)[Si](F)(c1ccc(C(=O)NC[C@@H](C(=O)N[C@H](CCCCNC(=O)CCCCCCC(=O)NCCCC[C@H](NC(=O)N[C@@H](CCC(=O)O)C(=O)O)C(=O)O)C(=O)O)n2cc(CNC(=O)CCP(=O)(O)CN3CCN(CP(=O)(O)CCC(=O)O)CCN(CP(=O)(O)CCC(=O)O)CC3)nn2)cc1)C(C)(C)C` [68/natGa-19/18F-rhPSMA-5, metal not drawn], the Internalization with LNCaP cells was 43 ± 3 % of reference.

Turning to `CC(C)(C)[Si](F)(c1ccc(C(=O)NC[C@@H](NC(=O)CCC(C(=O)O)N2CCN(CC(=O)O)CCN(CC(=O)O)CCN(CC(=O)O)CC2)C(=O)N[C@H](CCCCNC(=O)CCCCCCC(=O)NCCCC[C@H](NC(=O)N[C@@H](CCC(=O)O)C(=O)O)C(=O)O)C(=O)O)cc1)C(C)(C)C` (some centres unmarked) [68/natGa-19/18F-rhPSMA-6, metal not drawn], the Internalization with LNCaP cells is given as 33 ± 2 % of reference.

With `CC(C)(C)[Si](F)(c1ccc(C(=O)N[C@H](CNC(=O)CCC(C(=O)O)N2CCN(CC(=O)O)CCN(CC(=O)O)CCN(CC(=O)O)CC2)C(=O)N[C@H](CCCCNC(=O)CCC(=O)NCCC[C@@H](NC(=O)CC[C@H](NC(=O)N[C@@H](CCC(=O)O)C(=O)O)C(=O)O)C(=O)O)C(=O)O)cc1)C(C)(C)C` (some centres unmarked) [68/natGa-19/18F-rhPSMA-8, metal not drawn], the tissue uptake at 1 h turned out to be 2.2 ± 0.8 %ID/g in series [1] (setting [2]); 1.7 ± 0.1 %ID/g in series [1] (setting [3]); 0.32 ± 0.07 %ID/g in series [1] (setting [4]); 0.93 ± 0.08 %ID/g in series [1] (setting [5]); 0.35 ± 0.01 %ID/g in series [1] (setting [6]); 82.3 ± 5.9 %ID/g in series [1] (setting [7]). Further, the tissue uptake at 1 h in series [1] (setting [8]) is 0.79 ± 0.17 %ID/g; in series [1] (setting [9]), 1.3 ± 0.2 %ID/g; in series [1] (setting [10]), 0.24 ± 0.02 %ID/g; in series [1] (setting [11]), 0.48 ± 0.11 %ID/g; in series [1] (setting [12]), 6.3 ± 1.5 %ID/g; in series [1] (setting [13]) it was 0.42 ± 0.11 %ID/g. Also, the tissue uptake at 1 h in series [1] (setting [14]) is 6.5 ± 0.8 %ID/g. For the same compound, the HSA-binding with human serum albumin is given as 97%. In the series on LNCaP cells, the Internalization is reported as 98 ± 12 % of reference.

With `CC(C)(C)[Si](F)(c1ccc(C(=O)NC[C@@H](C(=O)N[C@H](CCCCNC(=O)CCC(=O)NCCC[C@@H](NC(=O)CC[C@H](NC(=O)N[C@@H](CCC(=O)O)C(=O)O)C(=O)O)C(=O)O)C(=O)O)n2cc(CNC(=O)CCP(=O)(O)CN3CCN(CP(=O)(O)CCC(=O)O)CCN(CP(=O)(O)CCC(=O)O)CC3)nn2)cc1)C(C)(C)C` [68/natGa-19/18F-rhPSMA-9, metal not drawn], the tissue uptake at 1 h was found to be 2.7 ± 0.2 %ID/g in series [1] (setting [2]); 0.46 ± 0.11 %ID/g in series [1] (setting [3]); 0.18 ± 0.05 %ID/g in series [1] (setting [4]); 0.48 ± 0.17 %ID/g in series [1] (setting [5]); 0.44 ± 0.34 %ID/g in series [1] (setting [6]); 54.9 ± 3 %ID/g in series [1] (setting [7]). Further, the tissue uptake at 1 h in series [1] (setting [8]) turned out to be 0.42 ± 0.07 %ID/g; in series [1] (setting [9]) it was 0.94 ± 0.2 %ID/g; in series [1] (setting [10]) it was 0.19 ± 0.06 %ID/g; in series [1] (setting [11]), 0.39 ± 0.09 %ID/g; in series [1] (setting [12]), 25.4 ± 5.2 %ID/g; in series [1] (setting [13]) it was 0.48 ± 0.4 %ID/g. Also, the tissue uptake at 1 h in series [1] (setting [14]) worked out at 7.2 ± 0.6 %ID/g. The HSA-binding in the series with human serum albumin worked out at 95%. Further, in the series on LNCaP cells, the Internalization is 180 ± 12 % of reference.
